US20170275666A1, “Methods for Preparing Rebaudioside I and Uses” (The Coca-Cola Company, priority 2014, published 2017)
Substitutions are numbered along the chain they refer to.

B1: UGT76G1var3: UGT76G1 variant, mutations I295T_S357C_V366I (protein, UniProt Q6VAB4 1-458, looked up, variant I295T S357C V366I)
UDP-glycosyltransferase 76G1: MENKTETTVRRRRRIILFPVPFQGHINPILQLANVLYSKGFSITIFHTNFNKPKTSNYPHFTFRFILDNDPQDERISNLPTHGPLAGMRIPIINEHGADELRRELELLMLASEEDEEVSCLITDALWYFAQSVADSLNLRRLVLMTSSLFNFHAHVSLPQFDELGYLDPDDKTRLEEQASGFPMLKVKDIKSAYSNWQILKEILGKMIKQTKASSGVIWNSFKELEESELETVIREIPAPSFLIPLPKHLTASSSSLLDHDRTVFQWLDQQPPSSVLYVSFGSTSEVDEKDFLETARGLVDSKQSFLWVVRPGFVKGSTWVEPLPDGFLGERGRIVKWVPQQEVLAHGAIGAFWTHCGWNSTLESICEGVPMIFSDFGLDQPLNARYMSDVLKVGVYLENGWERGEIANAIRRVMVDEEGEYIRQNARVLKQKADVSLMKGGSSYESLESLVSYISSL
B2: UGT76G1var65: UGT76G1 variant, mutations A33G_A239V_P382M_Q425E (protein, UniProt Q6VAB4 1-458, looked up, variant A33G A239V P382M Q425E)
UDP-glycosyltransferase 76G1: B1 UDP-glycosyltransferase 76G1 with A33G, A239V, T295I, C357S, I366V, P382M, Q425E
B3: UGT76G1var74: UGT76G1 variant, mutations I295T_I373L_S375R_Y397Q_Q432E (protein, UniProt Q6VAB4 1-458, looked up, variant I295T I373L S375R Y397Q Q432E)
UDP-glycosyltransferase 76G1: B1 UDP-glycosyltransferase 76G1 with C357S, I366V, I373L, S375R, Y397Q, Q432E
B4: UGT76G1var61: UGT76G1 variant, mutations I43V_F265I_Q266S_L379A (protein, UniProt Q6VAB4 1-458, looked up, variant I43V F265I Q266S L379A)
UDP-glycosyltransferase 76G1: B1 UDP-glycosyltransferase 76G1 with I43V, F265I, Q266S, T295I, C357S, I366V, L379A
B5: UGT76G1var73: UGT76G1 variant, mutations F22Y_D301N_R334H_Q342E_V396F (protein, UniProt Q6VAB4 1-458, looked up, variant F22Y D301N R334H Q342E V396F)
UDP-glycosyltransferase 76G1: B1 UDP-glycosyltransferase 76G1 with F22Y, T295I, D301N, R334H, Q342E, C357S, I366V, V396F
B6: UGT76G1var71: UGT76G1 variant, mutations I295M_V300A_K393G_Q432E (protein, UniProt Q6VAB4 1-458, looked up, variant I295M V300A K393G Q432E)
UDP-glycosyltransferase 76G1: B1 UDP-glycosyltransferase 76G1 with T295M, V300A, C357S, I366V, K393G, Q432E
B7: UGT76G1var4: UGT76G1 variant, mutations E224D_E231A_F265I (protein, UniProt Q6VAB4 1-458, looked up, variant E224D E231A F265I)
UDP-glycosyltransferase 76G1: B1 UDP-glycosyltransferase 76G1 with E224D, E231A, F265I, T295I, C357S, I366V
B8: UGT76G1var64: UGT76G1 variant, mutations F22L_A239I_R334H_I407V (protein, UniProt Q6VAB4 1-458, looked up, variant F22L A239I R334H I407V)
UDP-glycosyltransferase 76G1: B1 UDP-glycosyltransferase 76G1 with F22L, A239I, T295I, R334H, C357S, I366V, I407V
B9: UGT76G1var60: UGT76G1 variant, mutations E231A_L243A_V279I_S357N (protein, UniProt Q6VAB4 1-458, looked up, variant E231A L243A V279I S357N)
UDP-glycosyltransferase 76G1: B1 UDP-glycosyltransferase 76G1 with E231A, L243A, V279I, T295I, C357N, I366V
B10: UGT76G1var68: UGT76G1 variant, mutations Q342K_G348P_I373L_Y397E (protein, UniProt Q6VAB4 1-458, looked up, variant Q342K G348P I373L Y397E)
UDP-glycosyltransferase 76G1: B1 UDP-glycosyltransferase 76G1 with T295I, Q342K, G348P, C357S, I366V, I373L, Y397E
B11: UGT76G1var66: UGT76G1 variant (round 1), mutations F265L_V310I_V366I_A385T (protein, UniProt Q6VAB4 1-458, looked up, variant F265L V310I V366I A385T)
UDP-glycosyltransferase 76G1: B1 UDP-glycosyltransferase 76G1 with F265L, T295I, V310I, C357S, A385T
B12: UGT76G1var70: UGT76G1 variant, mutations E224A_I295T_V300A_G348P (protein, UniProt Q6VAB4 1-458, looked up, variant E224A I295T V300A G348P)
UDP-glycosyltransferase 76G1: B1 UDP-glycosyltransferase 76G1 with E224A, V300A, G348P, C357S, I366V
B13: UGT76G1var72: UGT76G1 variant, mutations T284L_D301N_K303G_S375R (protein, UniProt Q6VAB4 1-458, looked up, variant T284L D301N K303G S375R)
UDP-glycosyltransferase 76G1: B1 UDP-glycosyltransferase 76G1 with T284L, T295I, D301N, K303G, C357S, I366V, S375R
B14: UGT76G1var69: UGT76G1 variant, mutations S274G_I295T_I335V_L379A (protein, UniProt Q6VAB4 1-458, looked up, variant S274G I295T I335V L379A)
UDP-glycosyltransferase 76G1: B1 UDP-glycosyltransferase 76G1 with S274G, I335V, C357S, I366V, L379A
B15: UGT76G1var63: UGT76G1 variant, mutations F314S_R334H_Q342K_L379G (protein, UniProt Q6VAB4 1-458, looked up, variant F314S R334H Q342K L379G)
UDP-glycosyltransferase 76G1: B1 UDP-glycosyltransferase 76G1 with T295I, F314S, R334H, Q342K, C357S, I366V, L379G
B16: UGT76G1var58: UGT76G1 variant, mutations S357C_S375M_N409R_Q425E (protein, UniProt Q6VAB4 1-458, looked up, variant S357C S375M N409R Q425E)
UDP-glycosyltransferase 76G1: B1 UDP-glycosyltransferase 76G1 with T295I, I366V, S375M, N409R, Q425E
B17: UGT76G1var59: UGT76G1 variant, mutations I335V_K393G_V394I_Y397Q (protein, UniProt Q6VAB4 1-458, looked up, variant I335V K393G V394I Y397Q)
UDP-glycosyltransferase 76G1: B1 UDP-glycosyltransferase 76G1 with T295I, I335V, C357S, I366V, K393G, V394I, Y397Q
B18: UGT76G1var67: UGT76G1 variant, mutations E224D_F314S_S375R_Y397E (protein, UniProt Q6VAB4 1-458, looked up, variant E224D F314S S375R Y397E)
UDP-glycosyltransferase 76G1: B1 UDP-glycosyltransferase 76G1 with E224D, T295I, F314S, C357S, I366V, S375R, Y397E
B19: UGT76G1var75: UGT76G1 variant, mutations F41L_A239I_Q266S_S375M_P382M (protein, UniProt Q6VAB4 1-458, looked up, variant F41L A239I Q266S S375M P382M)
UDP-glycosyltransferase 76G1: B1 UDP-glycosyltransferase 76G1 with F41L, A239I, Q266S, T295I, C357S, I366V, S375M, P382M
B20: UGT76G1var62: UGT76G1 variant, mutations L243P_P272A_V394I_V396F (protein, UniProt Q6VAB4 1-458, looked up, variant L243P P272A V394I V396F)
UDP-glycosyltransferase 76G1: B1 UDP-glycosyltransferase 76G1 with L243P, P272A, T295I, C357S, I366V, V394I, V396F

assay: Directed evolution of UGT76G1, conversion of Rebaudioside D to Rebaudioside M (round 1); assay type: biochemical; settings: 0.5 mM Rebaudioside D, 2.5 mM UDP-Glucose, 100 μL fresh lysate, 30° C., pH 7.2
Outline: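 Conversion to Reb M and initial rate were measured by HPLC with CAD at 2, 4, 7 and 24 h, with reactions run at 30° C in 50 mM phosphate pH 7.2 containing 0.5 mM Reb D, 2.5 mM UDP-glucose and 3 mM MgCl2. Enzyme source: fresh lysates of E. coli BL21(DE3) expressing 3-5-mutation UGT76G1 variants.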

| Molecule | Conversion Reb D to Reb M after 24 h (%) | initial rate (Reb M area/min) |
| --- | --- | --- |
| B1 | 9.6 | 1.6E+06 |
| B2 | 1.2 | 3.3E+05 |
| B3 | 0.6 | 9.6E+04 |
| B4 | 6.4 | 2.0E+06 |
| B5 | 0.8 | 8.7E+05 |
| B6 | 42.9 | 2.1E+07 |
| B7 | 14.7 | 8.6E+06 |
| B8 | 0.3 | 3.1E+04 |
| B9 | 0.5 | 9.5E+04 |
| B10 | −1.4 | −1.1E+05 |
| B11 | 0.8 | 3.7E+05 |
| B12 | 24.0 | 8.4E+06 |
| B13 | 19.2 | 9.1E+06 |
| B14 | 24.7 | 8.3E+06 |
| B15 | 3.4 | 1.2E+06 |
| B16 | 7.5 | 2.2E+06 |
| B17 | 33.0 | 2.7E+07 |
| B18 | −2.1 | −5.6E+05 |
| B19 | 0.8 | −1.3E+05 |
| B20 | 0.1 | 3.4E+04 |
